We go through three molecules from patent publication US20180346564A1 (TEIJIN PHARMA, published 2018).

Experiment [1] addresses Ser413 phosphorylated tau protein (pSer413-Tau) derived from Alzheimer's disease patient brain homogenate (human, UniProt P10636-8 2-441, limits assumed, phosphoserine at Ser413 (numbering of SEQ ID NO: 1)). Kind of experiment: cell-based or functional assay.
Experiment [2] addresses T1, His-tagged non-phosphorylated tau protein 4R0N (human, UniProt P10636 2-758).
T1 construct: Produced by Escherichia coli; negative control in SPR; also called ATGen Cat. No. ATGP0795
The experiment is described as follows: SPR Biacore T200, antigen immobilized. In general terms: In SPR one partner is held on a chip, and binding of the other changes the refractive index at the surface.

Experiment [3] has as its target T2, Peptide No. 6, pT231, H-KVAVVR(pT)PPKSPS-OH (human).
T2 peptide: H-KVAVVR[pT]PPKSPS-OH
The experiment is described as follows: ELISA, coated peptide. A digest of the protocol: (§1)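 Antibody binding was taken as the absorbance signal. Plates coated with peptides or their bovine serum albumin or keyhole limpet hemocyanin conjugates (1 μg/mL in cold PBS, 50 μL/well, overnight at 4 °C) and blocked with 3% BSA-PBS overnight at 4 °C were incubated with purified antibody at 150 ng/mL for 90 minutes at room temperature. Detection used alkaline phosphatase-labelled goat anti-human IgG (H+L) at 2000-fold dilution for 60 minutes, with pNPP developed for 40 minutes and read at 405 nm (reference 550 nm).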

The target in experiment [4] is T3, Peptide No. 1, pS46, H-GLKE(pS)PLQT-OH (human, SMILES CC(C)C[C@H](NC(=O)CN)C(=O)N[C@@H](CCCCN)C(=O)N[C@@H](CCC(=O)O)C(=O)N[C@@H](COP(=O)(O)O)C(=O)N1CCC[C@H]1C(=O)N[C@@H](CC(C)C)C(=O)N[C@@H](CCC(N)=O)C(=O)N[C@H](C(=O)O)[C@@H](C)O).
T3 peptide: H-GLKE[pS]PLQT-OH
The experiment is described as follows: ELISA, coated peptide. A digest of the protocol: as §1
For orientation: ELISA stands for enzyme-linked immunosorbent assay.

Experiment [5] deals with T4, Peptide No. 7, pS396/pS400/pS404, H-GC-RENAKAKTDHGAEIVYK(pS)PVV(pS)GDT(pS)PRHL-OH (human, phosphoserine (pS) at peptide positions 20, 24 and 28 (tau Ser396, Ser400, Ser404)).
T4 peptide: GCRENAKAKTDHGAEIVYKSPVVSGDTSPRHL
Kind of experiment: ELISA, coated peptide. The procedure, abridged: as §1

Experiment [6] has as its target T5, Peptide No. 5, pT217, H-GC-GSRSRTPSLP(pT)PPTREPKKVAVV-OH (human, phosphothreonine (pT) at peptide position 13 (tau Thr217)).
T5 peptide: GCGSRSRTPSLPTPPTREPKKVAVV
The experiment is described as follows: ELISA, coated peptide. The procedure, abridged: as §1

Experiment [7] addresses T6, Peptide No. 3, pS202, H-SSPG(pS)PGTPC-OH (human, SMILES C[C@@H](O)[C@H](NC(=O)CNC(=O)[C@@H]1CCCN1C(=O)[C@H](COP(=O)(O)O)NC(=O)CNC(=O)[C@@H]1CCCN1C(=O)[C@H](CO)NC(=O)[C@@H](N)CO)C(=O)N1CCC[C@H]1C(=O)N[C@@H](CS)C(=O)O).
T6 peptide: H-SSPG[pS]PGTPC-OH
Kind of experiment: ELISA, coated peptide. A digest of the protocol:
as §1

The target in experiment [8] is T7, Peptide No. 2, pS199, H-SGYS(pS)PGSPGC-OH (human, SMILES N[C@@H](CO)C(=O)NCC(=O)N[C@@H](Cc1ccc(O)cc1)C(=O)N[C@@H](CO)C(=O)N[C@@H](COP(=O)(O)O)C(=O)N1CCC[C@H]1C(=O)NCC(=O)N[C@@H](CO)C(=O)N1CCC[C@H]1C(=O)NCC(=O)N[C@@H](CS)C(=O)O).
T7 peptide: H-SGYS[pS]PGSPGC-OH
Kind of experiment: ELISA, coated peptide. A digest of the protocol:
as §1

Experiment [9] addresses T8, Peptide No. 8, pS412, H-NV(pS)STGSC-OH (human, SMILES CC(C)[C@H](NC(=O)[C@@H](N)CC(N)=O)C(=O)N[C@@H](COP(=O)(O)O)C(=O)N[C@@H](CO)C(=O)N[C@H](C(=O)NCC(=O)N[C@@H](CO)C(=O)N[C@@H](CS)C(=O)O)[C@@H](C)O).
T8 peptide: H-NV[pS]STGSC-OH
The experiment is described as follows: ELISA, coated peptide. The procedure, abridged:
as §1

The target of experiment [10] is T9, Peptide No. 4, pT212/pS214, H-GCGSPGTPGSRSR(pT)P(pS)LPTPPTREPK-OH (human, phosphothreonine (pT) at peptide position 14 (tau Thr212); phosphoserine (pS) at peptide position 16 (tau Ser214)).
T9 peptide: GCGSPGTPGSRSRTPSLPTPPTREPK
The experiment is described as follows: ELISA, coated peptide. A digest of the protocol:
as §1

For experiment [11], the target named is T10, recombinant human phosphorylated Tau protein (80AWB) (human, UniProt P10636-8 1-441, limits assumed, phosphorylated; sites not stated).
T10 construct: also called Protein Immobilized
The experiment is described as follows: SPR Biacore, phosphorylated Tau protein immobilized. On the procedure: Antibody binding to immobilized, phosphorylated Tau protein was measured using Series S Sensor Chips NTA (GE Healthcare, BR100034). The running buffer for the immobilization was 10 mM HEPES, 150 mM […], 0.05% v/v Surfactant P20, pH 7.4 (GE Healthcare, BR100671) and the flow rate was 10 μL/minute. 350 mM EDTA was injected for 1 minute to clean the chip, followed by a 2 minute injection of 0.5 mM NiCl₂ (GE Healthcare, NTA Reagent Kit) to prepare the chip to capture his-tagged protein. The chip was activated according to the manufacturer's instructions using an amine coupling kit (GE Healthcare, BR100633), then 300 nM phosphorylated Tau protein (80AWB) was injected until the desired amount of protein had been immobilized. The chip was blocked with ethanolamine from the amine coupling kit. Each experiment used multiple levels of immobilized phosphorylated Tau protein. The lowest level varied from 54 resonance units (RU) to 452 RU, and the highest level varied from 463 RU to 1020 RU. […] Each concentration and several buffer blanks were injected for 3 minutes at a flowrate of […]. The dissociation of the antibody was monitored for 15 minutes, then the surface was regenerated with a 30 second to 1 minute injection of 100 mM CAPS (Sigma, C6070), 1 M KCl (Sigma, P9541), 1 mM EDTA, 2 mM DTT, pH 10.5. […]

Experiment [12] concerns the target T11, monophosphorylated tau peptide 1×P, TSPRHLSNVS(pS)TGSIDMVDSPC (human, phosphoserine (pS) at peptide position 11 (tau Ser413)).
T11 construct: also called 1xP; 1×P peptide
T11 peptide: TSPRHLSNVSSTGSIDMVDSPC
The experiment is described as follows: SPR Biacore, 1×P peptide immobilized. On the procedure: Antibody binding to immobilized, phosphorylated Tau peptide was measured using a Series S Sensor Chip CM3 (GE Healthcare, BR100536). The chip was activated using an amine coupling kit, then 30 μg/mL phosphorylated Tau peptide (SEQ ID NO:75) in 10 mM sodium acetate, pH 5.0 was injected until 51 RU had been immobilized. The chip was blocked with ethanolamine. A negative control reference surface was prepared similarly, using non-phosphorylated Tau peptide ([…], SEQ ID NO:77). […] Each concentration and several buffer blanks were injected for 3 minutes at a flowrate of 45 μL/minute. The dissociation of the antibody was monitored for 15 minutes. The surface was regenerated with a 30 second injection of 100 mM hydrochloric acid (Fisher Scientific, SA56-1, Waltham, Mass.).
The data were processed and fit using Biacore™ M T200 Evaluation Software version 2.0 or Biacore™ 4000 Evaluation Software version 1.1 (GE Healthcare). The data were “double referenced” by subtracting the response from a negative control flowcell and subtracting the response from a buffer injection or the average response from two buffer injections. The data were then fit with the “1:1 Binding” model to determine the association rate constant, kₐ (M⁻¹s⁻¹, where “M” equals molar and “s” equals seconds) and the dissociation rate constant, kd (s⁻¹). […]

[ ]: non-standard residue; d: D form. pT = C[C@@H](OP(=O)(O)O)[C@H](N)C(=O)O; pS = N[C@@H](COP(=O)(O)O)C(=O)O

T10 sequence (P10636 other isoform, or with tags, fused parts or gaps limits assumed): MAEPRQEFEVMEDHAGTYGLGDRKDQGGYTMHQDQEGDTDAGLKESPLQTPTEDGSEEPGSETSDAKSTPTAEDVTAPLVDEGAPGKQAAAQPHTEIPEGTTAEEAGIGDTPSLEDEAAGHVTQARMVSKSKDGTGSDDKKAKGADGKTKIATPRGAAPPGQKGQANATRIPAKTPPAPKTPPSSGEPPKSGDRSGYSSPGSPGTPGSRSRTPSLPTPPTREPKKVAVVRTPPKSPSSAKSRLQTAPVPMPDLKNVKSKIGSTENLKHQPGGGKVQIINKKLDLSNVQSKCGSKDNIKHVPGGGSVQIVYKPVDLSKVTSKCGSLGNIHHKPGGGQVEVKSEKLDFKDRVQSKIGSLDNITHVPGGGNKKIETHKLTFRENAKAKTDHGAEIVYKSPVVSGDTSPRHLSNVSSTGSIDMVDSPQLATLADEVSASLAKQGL
Chain of Ser413 phosphorylated tau protein (pSer413-Tau) derived from Alzheimer's disease patient brain homogenate (P10636 other isoform, or with tags, fused parts or gaps limits assumed): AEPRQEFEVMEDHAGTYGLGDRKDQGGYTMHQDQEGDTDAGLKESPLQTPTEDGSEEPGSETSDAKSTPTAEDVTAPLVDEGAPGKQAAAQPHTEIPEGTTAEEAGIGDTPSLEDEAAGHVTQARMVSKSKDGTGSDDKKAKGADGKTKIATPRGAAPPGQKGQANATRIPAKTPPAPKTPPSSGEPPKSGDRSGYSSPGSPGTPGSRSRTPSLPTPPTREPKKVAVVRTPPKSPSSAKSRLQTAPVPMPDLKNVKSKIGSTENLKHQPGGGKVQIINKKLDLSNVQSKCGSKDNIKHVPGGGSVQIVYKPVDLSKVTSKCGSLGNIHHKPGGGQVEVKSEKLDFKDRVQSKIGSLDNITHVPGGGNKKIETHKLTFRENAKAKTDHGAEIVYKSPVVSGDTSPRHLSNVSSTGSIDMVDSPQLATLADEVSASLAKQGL
T1 sequence (P10636 other isoform, or with tags, fused parts or gaps limits assumed): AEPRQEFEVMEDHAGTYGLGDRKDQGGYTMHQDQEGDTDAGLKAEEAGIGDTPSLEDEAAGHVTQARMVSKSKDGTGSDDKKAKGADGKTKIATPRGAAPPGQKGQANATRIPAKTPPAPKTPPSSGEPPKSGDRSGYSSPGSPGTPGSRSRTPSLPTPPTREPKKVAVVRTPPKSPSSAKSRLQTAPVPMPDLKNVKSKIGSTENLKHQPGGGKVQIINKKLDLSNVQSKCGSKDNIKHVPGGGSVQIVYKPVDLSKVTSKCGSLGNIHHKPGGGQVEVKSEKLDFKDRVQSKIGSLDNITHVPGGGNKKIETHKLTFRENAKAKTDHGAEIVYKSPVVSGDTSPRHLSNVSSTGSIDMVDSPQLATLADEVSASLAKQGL

B1: Humanized × [MAPT_H] mAb (Ta1505 VL46/VH11) IgG4 S228P/Kappa (CX) (antibody)
heavy: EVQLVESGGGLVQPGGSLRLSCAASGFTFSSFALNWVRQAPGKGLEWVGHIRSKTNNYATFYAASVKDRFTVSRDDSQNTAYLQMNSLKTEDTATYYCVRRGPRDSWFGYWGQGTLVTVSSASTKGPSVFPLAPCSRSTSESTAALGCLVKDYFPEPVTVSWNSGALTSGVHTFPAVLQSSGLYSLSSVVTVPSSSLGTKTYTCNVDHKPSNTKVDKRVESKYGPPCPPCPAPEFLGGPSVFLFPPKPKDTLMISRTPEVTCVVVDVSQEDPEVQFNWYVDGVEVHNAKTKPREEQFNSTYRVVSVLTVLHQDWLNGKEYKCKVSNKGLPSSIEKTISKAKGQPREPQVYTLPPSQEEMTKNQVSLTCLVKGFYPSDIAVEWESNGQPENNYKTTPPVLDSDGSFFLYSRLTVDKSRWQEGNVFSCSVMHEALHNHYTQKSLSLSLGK
light: DIVMTQSPLSLPVTLGEPASISCRSSQSIVHSNGNTYLEWYLQKPGQSPQLLIYTVSNRFSGVPDRFSGSGSGTDFTLKISRVEAEDLGVYYCFQGSHLPLTFGGGTKVEIKRTVAAPSVFIFPPSDEQLKSGTASVVCLLNNFYPREAKVQWKVDNALQSGNSQESVTEQDSKDSTYSLSSTLTLSKADYEKHKVYACEVTHQGLSSPVTKSFNRGEC
As for B1, the “IC50 of the fall of the AT8 AlphaLISA signal with the antibody concentration (signal falls from about 7500 to about 4400 at the highest concentration, about 400 nM; no lower plateau)” value in [1] was 175 nM.

B2: humanized antibody L50H11 (antibody, human IgG1, kappa, V domains shown)
VH: EVQLVESGGGLVQPGGSLRLSCAASGFTFSSFALNWVRQAPGKGLEWVGHIRSKTNNYATFYAASVKDRFTVSRDDSQNTAYLQMNSLKTEDTATYYCVRRGPRDSWFGYWGQGTLVTVSS
VL: DIVMTQSPLSLPVTLGDPASISCRSSQNIVHSNGNTYLEWYQQKPGQSPRLLIYTVSNRFSGVPDRFSGSGSGTDFTLKISRVEAEDLGVYYCFQGSHLPLTFGGGTKVEIKR
notes: VL50/VH11, human IgG1/kappa
For B2, the binding result is “no binding (tested: 0.2 to 1 nM)” in experiment [2]; “no binding (tested: OD value <0.5; antibody 150 ng/mL)” in experiment [3]; “no binding (tested: OD value <0.5; antibody 150 ng/mL)” in experiment [4]; “no binding (tested: OD value <0.5; antibody 150 ng/mL)” in experiment [5]; “no binding (tested: OD value <0.5; antibody 150 ng/mL)” in [6]; “no binding (tested: OD value <0.5; antibody 150 ng/mL)” in [7]. Besides, the binding result in experiment [8], in experiment [9] and in experiment [10] was “no binding (tested: OD value <0.5; antibody 150 ng/mL)” each time.

B3: Humanized × [MAPT_H] mAb (Ta1505-VL46_G34S/VH11) IgG4 S228P/Kappa (CX) (antibody, V domains shown)
VH: EVQLVESGGGLVQPGGSLRLSCAASGFTFSSFALNWVRQAPGKGLEWVGHIRSKTNNYATFYAASVKDRFTVSRDDSQNTAYLQMNSLKTEDTATYYCVRRGPRDSWFGYWGQGTLVTVSS
VL: DIVMTQSPLSLPVTLGEPASISCRSSQSIVHSNSNTYLEWYLQKPGQSPQLLIYTVSNRFSGVPDRFSGSGSGTDFTLKISRVEAEDLGVYYCFQGSHLPLTFGGGTKVEIKR
notes: also called hu VL46/VH11 G34S IgG4
Turning to B3, the binding result in experiment [11] and in experiment [12] was “no binding (tested: 0.37 nM to 30 nM antibody)” each time.
